{"source": "patent US20260176319A1", "about": "(KALLYOPE, published 2026)", "binders": {"B1": {"name": "Peptide 102 (peptide)", "peptide": "{C18 diacid}-[γGlu][AEEA][AEEA]GNH[Trp(7-F)]AV[dA]HL[Nle][Sar]-NH2", "SMILES": "CCCC[C@H](NC(=O)[C@H](CC(C)C)NC(=O)[C@H](Cc1c[nH]cn1)NC(=O)[C@@H](C)NC(=O)[C@@H](NC(=O)[C@H](C)NC(=O)[C@H](Cc1c[nH]c2c(F)cccc12)NC(=O)[C@H](Cc1c[nH]cn1)NC(=O)[C@H](CC(N)=O)NC(=O)CNC(=O)COCCOCCNC(=O)COCCOCCNC(=O)CC[C@H](NC(=O)CCCCCCCCCCCCCCCCC(=O)O)C(=O)O)C(C)C)C(=O)N(C)CC(N)=O"}, "B2": {"name": "Peptide 116 (peptide)", "peptide": "{C18 diacid}-[γGlu][AEEA][AEEA]GRHHAV[dA]HL[Nle]-NH2", "SMILES": "CCCC[C@H](NC(=O)[C@H](CC(C)C)NC(=O)[C@H](Cc1c[nH]cn1)NC(=O)[C@@H](C)NC(=O)[C@@H](NC(=O)[C@H](C)NC(=O)[C@H](Cc1c[nH]cn1)NC(=O)[C@H](Cc1c[nH]cn1)NC(=O)[C@H](CCCNC(=N)N)NC(=O)CNC(=O)COCCOCCNC(=O)COCCOCCNC(=O)CC[C@H](NC(=O)CCCCCCCCCCCCCCCCC(=O)O)C(=O)O)C(C)C)C(N)=O"}, "B3": {"name": "Peptide 104 (peptide)", "peptide": "{C18 diacid}-[γGlu][AEEA][AEEA]GNH[Trp(7-Me)]AV[dA]HL[Nle][Sar]-NH2", "SMILES": "CCCC[C@H](NC(=O)[C@H](CC(C)C)NC(=O)[C@H](Cc1c[nH]cn1)NC(=O)[C@@H](C)NC(=O)[C@@H](NC(=O)[C@H](C)NC(=O)[C@H](Cc1c[nH]c2c(C)cccc12)NC(=O)[C@H](Cc1c[nH]cn1)NC(=O)[C@H](CC(N)=O)NC(=O)CNC(=O)COCCOCCNC(=O)COCCOCCNC(=O)CC[C@H](NC(=O)CCCCCCCCCCCCCCCCC(=O)O)C(=O)O)C(C)C)C(=O)N(C)CC(N)=O"}, "B4": {"name": "Peptide 117 (peptide)", "peptide": "{C18 diacid}-[γGlu][AEEA][AEEA][AEEA][AEEA]GRH[Trp(7-Me)]AV[dA]HL[Nle]-NH2", "SMILES": "CCCC[C@H](NC(=O)[C@H](CC(C)C)NC(=O)[C@H](Cc1c[nH]cn1)NC(=O)[C@@H](C)NC(=O)[C@@H](NC(=O)[C@H](C)NC(=O)[C@H](Cc1c[nH]c2c(C)cccc12)NC(=O)[C@H](Cc1c[nH]cn1)NC(=O)[C@H](CCCNC(=N)N)NC(=O)CNC(=O)COCCOCCNC(=O)COCCOCCNC(=O)COCCOCCNC(=O)COCCOCCNC(=O)CC[C@H](NC(=O)CCCCCCCCCCCCCCCCC(=O)O)C(=O)O)C(C)C)C(N)=O"}, "B5": {"name": "Peptide 107 (peptide)", "peptide": "{C18 diacid}-[γGlu][AEEA][AEEA]GNHHAV[dA]HL[Nle]-NH2", "SMILES": "CCCC[C@H](NC(=O)[C@H](CC(C)C)NC(=O)[C@H](Cc1c[nH]cn1)NC(=O)[C@@H](C)NC(=O)[C@@H](NC(=O)[C@H](C)NC(=O)[C@H](Cc1c[nH]cn1)NC(=O)[C@H](Cc1c[nH]cn1)NC(=O)[C@H](CC(N)=O)NC(=O)CNC(=O)COCCOCCNC(=O)COCCOCCNC(=O)CC[C@H](NC(=O)CCCCCCCCCCCCCCCCC(=O)O)C(=O)O)C(C)C)C(N)=O"}, "B6": {"name": "Peptide 110 (peptide)", "peptide": "{C18 diacid}-[γGlu][AEEA][AEEA][AEEA][AEEA]GNH[Trp(7-F)]AV[dA]HL[Nle]-NH2", "SMILES": "CCCC[C@H](NC(=O)[C@H](CC(C)C)NC(=O)[C@H](Cc1c[nH]cn1)NC(=O)[C@@H](C)NC(=O)[C@@H](NC(=O)[C@H](C)NC(=O)[C@H](Cc1c[nH]c2c(F)cccc12)NC(=O)[C@H](Cc1c[nH]cn1)NC(=O)[C@H](CC(N)=O)NC(=O)CNC(=O)COCCOCCNC(=O)COCCOCCNC(=O)COCCOCCNC(=O)COCCOCCNC(=O)CC[C@H](NC(=O)CCCCCCCCCCCCCCCCC(=O)O)C(=O)O)C(C)C)C(N)=O"}, "B7": {"name": "Peptide 105 (peptide)", "peptide": "{C18 diacid}-[γGlu][AEEA][AEEA]GNH[2Nal]AV[dA]HL[Nle]-NH2", "SMILES": "CCCC[C@H](NC(=O)[C@H](CC(C)C)NC(=O)[C@H](Cc1c[nH]cn1)NC(=O)[C@@H](C)NC(=O)[C@@H](NC(=O)[C@H](C)NC(=O)[C@H](Cc1ccc2ccccc2c1)NC(=O)[C@H](Cc1c[nH]cn1)NC(=O)[C@H](CC(N)=O)NC(=O)CNC(=O)COCCOCCNC(=O)COCCOCCNC(=O)CC[C@H](NC(=O)CCCCCCCCCCCCCCCCC(=O)O)C(=O)O)C(C)C)C(N)=O"}, "B8": {"name": "Peptide 109 (peptide)", "peptide": "{C18 diacid}-[γGlu][AEEA][AEEA][AEEA][AEEA]GRH[Trp(7-F)]AV[dA]HL[Nle]-NH2", "SMILES": "CCCC[C@H](NC(=O)[C@H](CC(C)C)NC(=O)[C@H](Cc1c[nH]cn1)NC(=O)[C@@H](C)NC(=O)[C@@H](NC(=O)[C@H](C)NC(=O)[C@H](Cc1c[nH]c2c(F)cccc12)NC(=O)[C@H](Cc1c[nH]cn1)NC(=O)[C@H](CCCNC(=N)N)NC(=O)CNC(=O)COCCOCCNC(=O)COCCOCCNC(=O)COCCOCCNC(=O)COCCOCCNC(=O)CC[C@H](NC(=O)CCCCCCCCCCCCCCCCC(=O)O)C(=O)O)C(C)C)C(N)=O"}, "B9": {"name": "Peptide 112 (peptide)", "peptide": "Palmitoyl-[γGlu][AEEA][AEEA]GNH[Trp(7-Me)]AV[dA]HL[Nle][Sar]-NH2", "SMILES": "CCCCCCCCCCCCCCCC(=O)N[C@@H](CCC(=O)NCCOCCOCC(=O)NCCOCCOCC(=O)NCC(=O)N[C@@H](CC(N)=O)C(=O)N[C@@H](Cc1c[nH]cn1)C(=O)N[C@@H](Cc1c[nH]c2c(C)cccc12)C(=O)N[C@@H](C)C(=O)N[C@H](C(=O)N[C@H](C)C(=O)N[C@@H](Cc1c[nH]cn1)C(=O)N[C@@H](CC(C)C)C(=O)N[C@@H](CCCC)C(=O)N(C)CC(N)=O)C(C)C)C(=O)O"}, "B10": {"name": "Peptide 118 (peptide)", "peptide": "{C18 diacid}-[γGlu][AEEA][AEEA][AEEA][AEEA]GRHWAV[dA]HL[Nle]-NH2", "SMILES": "CCCC[C@H](NC(=O)[C@H](CC(C)C)NC(=O)[C@H](Cc1c[nH]cn1)NC(=O)[C@@H](C)NC(=O)[C@@H](NC(=O)[C@H](C)NC(=O)[C@H](Cc1c[nH]c2ccccc12)NC(=O)[C@H](Cc1c[nH]cn1)NC(=O)[C@H](CCCNC(=N)N)NC(=O)CNC(=O)COCCOCCNC(=O)COCCOCCNC(=O)COCCOCCNC(=O)COCCOCCNC(=O)CC[C@H](NC(=O)CCCCCCCCCCCCCCCCC(=O)O)C(=O)O)C(C)C)C(N)=O"}, "B11": {"name": "Peptide 114 (peptide)", "peptide": "{C18 diacid}-[γGlu][AEEA][AEEA]GNHWAV[dA]HL[Nle]R-NH2", "SMILES": "CCCC[C@H](NC(=O)[C@H](CC(C)C)NC(=O)[C@H](Cc1c[nH]cn1)NC(=O)[C@@H](C)NC(=O)[C@@H](NC(=O)[C@H](C)NC(=O)[C@H](Cc1c[nH]c2ccccc12)NC(=O)[C@H](Cc1c[nH]cn1)NC(=O)[C@H](CC(N)=O)NC(=O)CNC(=O)COCCOCCNC(=O)COCCOCCNC(=O)CC[C@H](NC(=O)CCCCCCCCCCCCCCCCC(=O)O)C(=O)O)C(C)C)C(=O)N[C@@H](CCCNC(=N)N)C(N)=O"}, "B12": {"name": "Peptide 103 (peptide)", "peptide": "{C18 diacid}-[γGlu][AEEA][AEEA][AEEA][AEEA]GNH[Trp(7-Me)]AV[dA]HL[Nle][Sar]-NH2", "SMILES": "CCCC[C@H](NC(=O)[C@H](CC(C)C)NC(=O)[C@H](Cc1c[nH]cn1)NC(=O)[C@@H](C)NC(=O)[C@@H](NC(=O)[C@H](C)NC(=O)[C@H](Cc1c[nH]c2c(C)cccc12)NC(=O)[C@H](Cc1c[nH]cn1)NC(=O)[C@H](CC(N)=O)NC(=O)CNC(=O)COCCOCCNC(=O)COCCOCCNC(=O)COCCOCCNC(=O)COCCOCCNC(=O)CC[C@H](NC(=O)CCCCCCCCCCCCCCCCC(=O)O)C(=O)O)C(C)C)C(=O)N(C)CC(N)=O"}, "B13": {"name": "Peptide 106 (peptide)", "peptide": "{C18 diacid}-[γGlu][AEEA][AEEA]GNHW[dA]V[dA]HL[Nle]-NH2", "SMILES": "CCCC[C@H](NC(=O)[C@H](CC(C)C)NC(=O)[C@H](Cc1c[nH]cn1)NC(=O)[C@@H](C)NC(=O)[C@@H](NC(=O)[C@@H](C)NC(=O)[C@H](Cc1c[nH]c2ccccc12)NC(=O)[C@H](Cc1c[nH]cn1)NC(=O)[C@H](CC(N)=O)NC(=O)CNC(=O)COCCOCCNC(=O)COCCOCCNC(=O)CC[C@H](NC(=O)CCCCCCCCCCCCCCCCC(=O)O)C(=O)O)C(C)C)C(N)=O"}, "B14": {"name": "Peptide 108 (peptide)", "peptide": "{C18 diacid}-[γGlu][AEEA][AEEA]GNHRAV[dA]HL[Nle]-NH2", "SMILES": "CCCC[C@H](NC(=O)[C@H](CC(C)C)NC(=O)[C@H](Cc1c[nH]cn1)NC(=O)[C@@H](C)NC(=O)[C@@H](NC(=O)[C@H](C)NC(=O)[C@H](CCCNC(=N)N)NC(=O)[C@H](Cc1c[nH]cn1)NC(=O)[C@H](CC(N)=O)NC(=O)CNC(=O)COCCOCCNC(=O)COCCOCCNC(=O)CC[C@H](NC(=O)CCCCCCCCCCCCCCCCC(=O)O)C(=O)O)C(C)C)C(N)=O"}, "B15": {"name": "Peptide 115 (peptide)", "peptide": "{C18 diacid}-[γGlu][AEEA][AEEA]GNHW[dA]V[dA]HL[Nle][Sar]-NH2", "SMILES": "CCCC[C@H](NC(=O)[C@H](CC(C)C)NC(=O)[C@H](Cc1c[nH]cn1)NC(=O)[C@@H](C)NC(=O)[C@@H](NC(=O)[C@@H](C)NC(=O)[C@H](Cc1c[nH]c2ccccc12)NC(=O)[C@H](Cc1c[nH]cn1)NC(=O)[C@H](CC(N)=O)NC(=O)CNC(=O)COCCOCCNC(=O)COCCOCCNC(=O)CC[C@H](NC(=O)CCCCCCCCCCCCCCCCC(=O)O)C(=O)O)C(C)C)C(=O)N(C)CC(N)=O"}}, "note": "Starred links: 1 amine or outer side, 2 acyl side, 3 side chain; linkers in the order of their positions; H or OH if unused. Non-standard residues stand in square brackets, D forms with d. *: point of attachment. Trp(7-F) = N[C@@H](Cc1c[nH]c2c(F)cccc12)C(=O)O; Trp(7-Me) = Cc1cccc2c(C[C@H](N)C(=O)O)c[nH]c12; C18 diacid = O=C(O)CCCCCCCCCCCCCCCCC(=O)*; γGlu = O=C(O)[C@H](CCC(=O)[*:2])N[*:1]; 2Nal = N[C@@H](Cc1ccc2ccccc2c1)C(=O)O; Palmitoyl = CCCCCCCCCCCCCCCC(=O)*; Nle = CCCC[C@H](N)C(=O)O; AEEA = NCCOCCOCC(=O)O; Sar = CNCC(=O)O"}
{"target": "human GRP receptor (human, UniProt P30550 1-384)", "sequence (P30550 whole entry)": "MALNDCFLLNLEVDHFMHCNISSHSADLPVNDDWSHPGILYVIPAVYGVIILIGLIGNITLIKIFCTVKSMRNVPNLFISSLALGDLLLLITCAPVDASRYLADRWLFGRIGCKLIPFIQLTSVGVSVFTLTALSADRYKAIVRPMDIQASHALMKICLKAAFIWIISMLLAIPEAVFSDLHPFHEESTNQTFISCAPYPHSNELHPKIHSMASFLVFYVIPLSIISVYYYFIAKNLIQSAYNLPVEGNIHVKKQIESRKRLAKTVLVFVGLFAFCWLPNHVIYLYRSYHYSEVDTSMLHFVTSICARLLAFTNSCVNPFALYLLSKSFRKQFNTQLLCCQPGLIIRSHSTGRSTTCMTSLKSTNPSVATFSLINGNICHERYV", "assay": "cell-based or functional assay", "units": {"hIP1 GRPR EC50": "nM"}}
{"binder": "B1", "hIP1 GRPR EC50": 181}
{"binder": "B2", "hIP1 GRPR EC50": "> 10000"}
{"binder": "B3", "hIP1 GRPR EC50": 221}
{"binder": "B4", "hIP1 GRPR EC50": 16.5}
{"binder": "EXXGNHWAVGHLM (Palmitoyl-D-γGlu-OEG-OEG-Gly-Asn-His-Trp-Ala-Val-Gly-His-Leu-Met-NH2)", "note": "[Peptide 8]", "hIP1 GRPR EC50": 1.7}
{"binder": "B5", "hIP1 GRPR EC50": "> 10000"}
{"binder": "B6", "hIP1 GRPR EC50": 12.4}
{"binder": "B7", "hIP1 GRPR EC50": 232}
{"binder": "B8", "hIP1 GRPR EC50": 18.7}
{"binder": "B9", "hIP1 GRPR EC50": "> 10000"}
{"binder": "B10", "hIP1 GRPR EC50": 8.02}
{"binder": "B11", "hIP1 GRPR EC50": "> 10000"}
{"binder": "B12", "hIP1 GRPR EC50": 345}
{"binder": "B13", "hIP1 GRPR EC50": 467}
{"binder": "B14", "hIP1 GRPR EC50": "> 10000"}
{"binder": "B15", "hIP1 GRPR EC50": "> 10000"}
